Reference: patent US20200165323A1 (PANASONIC INTELLECTUAL PROPERTY MANAGEMENT, published 2020)

Target: recombinant nucleoprotein (NP) protein derived from influenza virus H1N1 to which a Flag tag was fus (influenza virus H1N1)
Sequence (P03466 whole entry): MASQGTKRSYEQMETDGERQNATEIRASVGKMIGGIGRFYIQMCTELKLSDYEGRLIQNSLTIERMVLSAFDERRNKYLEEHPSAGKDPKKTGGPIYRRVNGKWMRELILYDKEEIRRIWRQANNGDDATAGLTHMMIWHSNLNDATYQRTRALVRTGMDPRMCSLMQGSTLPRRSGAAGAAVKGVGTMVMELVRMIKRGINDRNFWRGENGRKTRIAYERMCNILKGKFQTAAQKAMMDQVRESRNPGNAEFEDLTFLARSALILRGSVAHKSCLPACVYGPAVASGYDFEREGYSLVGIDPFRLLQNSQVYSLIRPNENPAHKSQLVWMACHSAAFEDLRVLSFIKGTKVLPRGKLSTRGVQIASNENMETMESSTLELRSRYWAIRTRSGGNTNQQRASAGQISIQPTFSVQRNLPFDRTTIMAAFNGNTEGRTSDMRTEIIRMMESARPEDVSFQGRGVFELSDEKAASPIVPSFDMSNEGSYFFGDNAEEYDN

B1: VHH antibody consisting of the amino acid sequence represented by SEQ ID NO: 8 (VHH)
VHH: QLQLVESGGGLVQAGGSLRLSCAASGSAFSLYAMGWHRQAPGKQRELVAYITNGDITNYADSVQGRVIISRDNAKNTVYLHMNSLKPEDTAVYYCYAVGGRTFWGQGTQVTVSS
Binder B1 has a Kd of 1.09 nM.
